Changes are numbered by the printed parent chain. In names and notes the source's numbering stands. No end group written: not given here.
How the values were obtained:
[1] = biological target: T1, Pep-3, NH2-LEEKKGNYVVTDHG-OH (human); test: Biacore 2000 SPR, mAb immobilised, pep-3 analyte, 23 C
T1 construct: Free peptide used in Biacore and KinExA (MW 1590 Da)
T1 peptide: H-LEEKKGNYVVTDHG-OH
Experimental: Standard EDC/NHS and carbohydrate coupling was used to covalently immobilize mAbs to a CM5 sensor chip. To minimize mass transport and crowding mAbs were immobilized at levels that gave a maximum antigen binding response (Rₘₐₓ) of no more than 50-100 RU. A reference flow cell on each chip was activated and blocked with no mAb immobilization to serve as a control.
All Biacore kinetic experiments were conducted at 23° C. […] Antigen samples were randomly injected over the biosensor surface in triplicate at 100 μL/min. Several buffer blanks were injected intermittently over the course of an experiment for double referencing. Each pep-3 concentration and blank were injected for 90 seconds. Dissociation was followed for 13 to 180 minutes.
All Biacore sensorgrams were processed using Scrubber software (Version 1.1f, BioLogic Software, Australia). Sensorgrams were first zeroed on the y-axis and then x-aligned at the beginning of the injection. Bulk refractive index changes were removed by subtracting the reference flow cell responses. The average response of all blank injections was subtracted from all analyte and blank sensorgrams to remove systematic artifacts between the experimental and reference flow cells. CLAMP biosensor data analysis software (Version 3.40, BioLogic Software, Australia) was used to determine kₐ and kd from the processed data sets. Data from all flow cells were globally fit to a 1:1 bimolecular binding model that included a mass transport term. […] The KD was calculated from the quotient kd/kₐ.

[2] = biological target: T2, EGFRvIII peptide-OVA (PEP3 14-mer conjugated to ovalbumin) (human, also: conjugated to OVA, chemistry not given here); test: XenoMax screening
T2 construct: also called VIII-pep-OVA; muEGFr
T2 peptide: LEEKKGNYVVTDHC

[3] = biological target: T3, EGFRvIII, full length, expressed by transfected cells (NR6 M, H1477, 300.19/EGFRvIII) (human, UniProt P00533 298-1210); test: cell-based or functional assay
[4] = biological target: T3, EGFRvIII, full length, expressed by …; test: FACS on NR6 M cells, antibody at 0.25 µg/ml with SS Alexa anti-human IgG Fab, 37° C. for 1 hr, no glutathione (total cell-associated fluorescence)
Experimental: XenoMax derived IgG1 recombinant antibodies were expressed, purified and quantitated as described previously. Antibodies were further assayed for their ability to internalize the EGFRvIII receptor in NR6 M cells. […] The cells were washed with cold 10% FCS in PBS and secondary antibody (SS Alexa antihuman IgG Fab) at 3 μg/ml Fab was added and incubated for 7 mins on ice. The cells were washed with cold 10% FCS in PBS once and then resuspended in cold media. Next, two sets of the triplicate were incubated at 37° C. and the remaining set was incubated at 4° C. for 1 hr. After that the cells incubated at 4° C. and one set of the cells incubated at 37° C. were treated with glutathione (as previously mentioned) for 1 hr on ice. Then the cells were washed and resuspended in 100 μl of cold 1% FCS in PBS and analyzed by FACS. The % internalization was calculated from the geometric mean obtained from the FACS analysis [(mean at 37° C. with glutathione—mean at 4° C. with glutathione)/(mean at 37° C. without glutathione—mean at 4 C with glutathione)].

[5] = biological target: T4, EGFRvIII-rabbit Fc fusion protein (human; rabbit, UniProt P00533 298-645); test: ELISA, minilipofection supernatant titrated 1:2 on EGFRvIII-Rab Ig Fc fusion protein (1.5 ug/ml)
T4 construct: made in 293F cells; also called EGFRvIII-RbFc; EGFRvIII-Rab Ig Fc fusion protein; not shown: rabbit IgG Hinge-CH2-CH3 (721 bp fragment)
Experimental: The secretion ELISA tests were performed as follows. […] The plates were washed five times with dH₂O. Recombinant antibodies were titrated 1:2 for 7 wells from the undiluted minilipofection supernatant. The plates were washed five times with dH₂O. A goat anti-human IgG Fc-specific HRP-conjugated antibody was added at a final concentration of 1 μg/mL for 1 hour at RT for the secretion plates and binding plates detected with 1 μg/ml Rb anti Hu Fc for 1 hour at room temperature. The plates were washed five times with dH₂O. The plates were developed with the addition of TMB for 30 minutes and the ELISA was stopped by the addition of 1 M phosphoric acid. Each ELISA plate was analyzed to determine the optical density of each well at 450 nm.

[6] = biological target: EGFrVIII antigen (ELISA antigen of Examples 15, 17 and 21; form not stated) (human, UniProt P00533 298-645, limits assumed); test: ELISA, 293 cell supernatant on EGFrVIII antigen
Experimental: Each mutated chain was then transfected with the complementary wild-type chain in 293 cells. Supernatants were then tested for expression and secretion of human IgG antibodies, and for binding to EGFrVIII antigen.

[7] = biological target: T1, Pep-3, NH2-LEEKKGNYVVTDHG-OH; test: Biacore 2000 SPR, mAb immobilised, pep-3 analyte
From the text: The first step in these examples involved the immobilization of 5,600 resonance units (RU) to 8,000 RU of each mAb tested to one flow cell (Fc) of a CM5 sensor chip using standard EDC/NHS coupling chemistry. […] Three CM5 sensor chips were used in total to immobilize all mutant mAbs with a unique mAb immobilized to each flow cell. […] Biacore 2000 optical biosensors were used for all studies.

B1: AB-EGFRvIII-XG1-095 (antibody, V domains shown)
VH: QVQLQESGPFLVKPSQTLSLTCTVSGGSISSGGYYWSWIRQHPGKGLEWIGFIYYRGNTYYNPSLKSRVTISVDTSKNQFSLKLSSVTAADTAVYYCARDGYCSRTGCYGGWFDPWGQGTLVTVSP
VL: DIVMTQTPLSSPVTLGQPASISCRSSQSLIHTDGNIYLSWLQQRPGQPPRLLIYKISNRFSGVPDRFSGSGAGTDFTLKISRVEAEDVGVYYCMQGTQFPITFGQGTRLEIK
notes: also called SC95; sc95
- Kd [1]: 66 nM
- koff [1]: 0.0099 s⁻¹
- kon [1]: 149000 M⁻¹ s⁻¹
- binding result [2]: binds
- % internalization [3]: 72.4%
- FACS Geometric mean, With glutathione 4° C. [3]: 5.13 geometric mean
- FACS Geometric mean, With glutathione 37° C. [3]: 17.8 geometric mean
- FACS Geometric mean (without glutathione, 37° C.) [4]: 22.6 geometric mean

B2: SC-EGFRvIII-XG2-150 (antibody, human IgG1, V domains shown)
VH: QVQLQQSGPGLVKPSQTLSLTCAISGDSVSSYSSAWNWIRQSPSRGLEWLGRAYHRSRWYYEYAVSVKSRINITPDTSKNQFSLQLNSVTPEDTAVYYCARGSRFDYWGQGTLVTVSS
VL: B1 VL with I30V, T32R, I36T, V90I, Y92F, Q95H, G96T, I101W, L109V
notes: XenoMax-derived from an XMG2 mouse; also called sc150; 182D5
- Titer, antigen binding [5]: > 64 reciprocal dilution
- % internalization [3]: 20%
- FACS Geometric mean, With glutathione 4° C. [3]: 4.66 geometric mean
- FACS Geometric mean, With glutathione 37° C. [3]: 7.78 geometric mean
- FACS Geometric mean (without glutathione, 37° C.) [4]: 20.3 geometric mean

B3: SC-EGFRvIII-XG2-170 (antibody, human IgG1, V domains shown)
VH: QVQLQQSGPGLVKPSQTLSLTCAISGDSVSSNNAAWNWIRQSPARGLEWLGRTYYRSKWYNDYVVSVKSRITINPDTSKNQFSLQLNSVTPEDTAVYYCVRATAFDYWGQGTLVTVSS
VL: AIVLTQTPLSSPVTLGQPASISCRSSQSLVHRDGNTYLSWLQQRPGQPPRLLIYKISNRFSGVPDRFSGSGAGTDFTLKISRVEPDDVGVYYCMHTTQLPWTFGQGTKVEIK
notes: XenoMax-derived from an XMG2 mouse; also called SC170; sc170
- Titer, antigen binding [5]: > 64 reciprocal dilution
- % internalization [3]: 20.1%
- FACS Geometric mean, With glutathione 4° C. [3]: 4.67 geometric mean
- FACS Geometric mean, With glutathione 37° C. [3]: 7.75 geometric mean
- FACS Geometric mean (without glutathione, 37° C.) [4]: 20 geometric mean

B4: SC-EGFRvIII-XG1-318 (antibody, human IgG1, V domains shown)
VH: QVQLVESGGGVVQPGRSLRLSCVASGFTLSSYGMHWVRQAPGKGLEWVAVTSYDGSKKDYADSVKGRFTISRDNSKNTLYLQMNSLRAEDTAVYYCVSEGYCDSSSCYKYYYYGMDVWGQGTTVTVSS
VL: DIVMTQSPLSLPVTPGEPASISCRSSQSLLYRNGNNYLDWYLQRPGQSPQLLIYLGSNRASGVPDRFSGSGSGTDFTLKISRVEAEDVGVYYCMQALQTPRTFGQGTKVEIK
notes: XenoMax-derived; also called 141A10
- Titer, antigen binding [5]: 64 reciprocal dilution

B5: SC-EGFRvIII-XG1-333 (antibody, human IgG1, V domains shown)
VH: B4 VH with P41L, S105T
VL: B4 VL
notes: XenoMax-derived
- Titer, antigen binding [5]: > 64 reciprocal dilution

B6: SC-EGFRvIII-XG1-123/124 (antibody, human IgG1, V domains shown)
VH: B4 VH with V23A, T51M, K58E, K76E, D103S, S105R
VL: B4 VL with R44K, K79N, V90H
notes: also called 129A7
- Titer, antigen binding [5]: > 64 reciprocal dilution

B7: SC-EGFRvIII-XG1-342 (antibody, human IgG1, V domains shown)
VH: B4 VH with S105T
VL: B4 VL
notes: XenoMax-derived; also called 124D4
- Titer, antigen binding [5]: > 64 reciprocal dilution

B8: SC-EGFRvIII-XG1-211 (antibody, V domains shown)
VH: B4 VH with V64A, D103S
VL: B4 VL
notes: also called SC211; sc211
- Titer, antigen binding [5]: > 64 reciprocal dilution
- % internalization [3]: 21.6%
- FACS Geometric mean, With glutathione 4° C. [3]: 4.78 geometric mean
- FACS Geometric mean, With glutathione 37° C. [3]: 8.23 geometric mean
- FACS Geometric mean (without glutathione, 37° C.) [4]: 20.8 geometric mean

B9: 13.1.2 variant Arg101Asp (antibody, V domains shown)
VH: QVQLVESGGGVVQPGRSLRLSCAASGFTFSSYGMHWVRQAPGKGLEWVAVIWYDGSNKYYVDSVKGRFTISRDNSKNTLYLQMNSLRAEDTAVYYCARDGWQQLAPFDYWGQGTLVTVSS
VL: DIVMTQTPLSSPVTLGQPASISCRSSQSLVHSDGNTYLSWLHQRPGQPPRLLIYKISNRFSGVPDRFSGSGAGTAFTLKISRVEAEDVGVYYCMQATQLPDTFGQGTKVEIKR
notes: Mutated chain co-transfected with the complementary wild-type chain in 293 cells; supernatant tested
- binding result [6]: no binding

B10: 13.1.2 variant L99H-9.2 (antibody, V domains shown)
VH: B9 VH
VL: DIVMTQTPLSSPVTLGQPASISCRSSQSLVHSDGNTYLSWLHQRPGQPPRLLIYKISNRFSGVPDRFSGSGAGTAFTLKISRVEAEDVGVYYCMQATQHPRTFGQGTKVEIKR
notes: also called Leu99His; 99His
- Kd [7]: 395 nM
- koff [7]: 0.033 s⁻¹
- kon [7]: 83400 M⁻¹ s⁻¹

B11: 13.1.2 variant Arg101Glu (antibody, V domains shown)
VH: B9 VH
VL: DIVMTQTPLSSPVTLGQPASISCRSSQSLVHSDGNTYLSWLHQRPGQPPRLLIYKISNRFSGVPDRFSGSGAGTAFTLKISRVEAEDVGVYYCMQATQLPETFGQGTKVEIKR
notes: as for B9
- binding result [6]: no binding

B12: 13.1.2 variant L217N-2.1 (antibody, V domains shown)
VH: B9 VH with L104N
VL: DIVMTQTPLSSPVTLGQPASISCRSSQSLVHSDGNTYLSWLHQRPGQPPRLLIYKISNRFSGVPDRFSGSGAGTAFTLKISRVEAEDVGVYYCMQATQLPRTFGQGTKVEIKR
notes: also called Leu217Asn; 217Asn
- Kd [7]: 185 nM
- koff [7]: 0.04 s⁻¹
- kon [7]: 220000 M⁻¹ s⁻¹

B13: 13.1.2 variant Y172R-1.2 (antibody, V domains shown)
VH: B9 VH with Y59R
VL: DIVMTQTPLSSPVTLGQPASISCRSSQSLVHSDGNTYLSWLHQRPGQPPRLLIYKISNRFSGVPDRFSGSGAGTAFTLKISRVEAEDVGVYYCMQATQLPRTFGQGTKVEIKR
notes: also called Tyr172Arg; 172Arg
- Kd [7]: 927 nM
- koff [7]: 0.076 s⁻¹
- kon [7]: 82200 M⁻¹ s⁻¹

B14: 13.1.2 variant N35G-3.1 (antibody, V domains shown)
VH: B9 VH
VL: DIVMTQTPLSSPVTLGQPASISCRSSQSLVHSDGGTYLSWLHQRPGQPPRLLIYKISNRFSGVPDRFSGSGAGTAFTLKISRVEAEDVGVYYCMQATQLPRTFGQGTKVEIKR
notes: also called Asn35Gly; 35Gly
- Kd [7]: 204 nM
- koff [7]: 0.03 s⁻¹
- kon [7]: 150000 M⁻¹ s⁻¹

B15: 13.1.2 variant L217Q-10.1 (antibody, V domains shown)
VH: B9 VH with L104Q
VL: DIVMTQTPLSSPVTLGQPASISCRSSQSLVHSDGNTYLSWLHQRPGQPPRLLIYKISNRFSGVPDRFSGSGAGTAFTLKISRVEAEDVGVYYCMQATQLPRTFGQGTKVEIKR
notes: also called Leu217Gln; 217Gln
- Kd [7]: 92 nM
- koff [7]: 0.019 s⁻¹
- kon [7]: 204000 M⁻¹ s⁻¹

B16: 13.1.2 variant Arg101Gln (antibody, V domains shown)
VH: B9 VH
VL: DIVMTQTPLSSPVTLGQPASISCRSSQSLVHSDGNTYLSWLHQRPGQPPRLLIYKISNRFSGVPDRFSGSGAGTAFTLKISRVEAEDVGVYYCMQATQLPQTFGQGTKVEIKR
notes: as for B9
- binding result [6]: no binding

B17: SC-EGFRvIII-XG1-250 (antibody, V domains shown)
VH: EGQLLESGGGWVQPGESLRLSCAASGFTFSSYAMSWVRQAPGKGLEWVSAISGSGGSTNYADSVKGRFTISRDNSKNTLYLQVNSLRVEDTAVYYCAGSSGWSEYWGQGTLVTVSS
VL: DIQMTQSPSSLSASVGDSVTITCRTSQGIRKNLGWYQQKPGKAPKRLIYAASSLQSGVPSRFSGSGSGTEFTLTISRLQPEDFATYYCLQHHSYPLTFGGGTRVEIR
notes: also called SC250; sc250
- Titer, antigen binding [5]: > 64 reciprocal dilution
- binding result [2]: binds
- % internalization [3]: 16.7%
- FACS Geometric mean, With glutathione 4° C. [3]: 4.84 geometric mean
- FACS Geometric mean, With glutathione 37° C. [3]: 8.07 geometric mean
- FACS Geometric mean (without glutathione, 37° C.) [4]: 24.1 geometric mean
